Test results reported in patent US20110129481A1.

Columns and labels:
[1] = target: human c-Met/Fc fusion protein (R&D Systems, Inc.) (human) (UniProt P08581); assay: ELISA, plate-bound c-Met/Fc (2 ug/ml), anti-mouse IgG-HRP
[2] = target: mouse c-Met/Fc fusion protein (R&D Systems, Inc.) (mouse) (UniProt P16056); assay: as above
Sequence of UniProt P16056 (P16056 25-931 limits assumed): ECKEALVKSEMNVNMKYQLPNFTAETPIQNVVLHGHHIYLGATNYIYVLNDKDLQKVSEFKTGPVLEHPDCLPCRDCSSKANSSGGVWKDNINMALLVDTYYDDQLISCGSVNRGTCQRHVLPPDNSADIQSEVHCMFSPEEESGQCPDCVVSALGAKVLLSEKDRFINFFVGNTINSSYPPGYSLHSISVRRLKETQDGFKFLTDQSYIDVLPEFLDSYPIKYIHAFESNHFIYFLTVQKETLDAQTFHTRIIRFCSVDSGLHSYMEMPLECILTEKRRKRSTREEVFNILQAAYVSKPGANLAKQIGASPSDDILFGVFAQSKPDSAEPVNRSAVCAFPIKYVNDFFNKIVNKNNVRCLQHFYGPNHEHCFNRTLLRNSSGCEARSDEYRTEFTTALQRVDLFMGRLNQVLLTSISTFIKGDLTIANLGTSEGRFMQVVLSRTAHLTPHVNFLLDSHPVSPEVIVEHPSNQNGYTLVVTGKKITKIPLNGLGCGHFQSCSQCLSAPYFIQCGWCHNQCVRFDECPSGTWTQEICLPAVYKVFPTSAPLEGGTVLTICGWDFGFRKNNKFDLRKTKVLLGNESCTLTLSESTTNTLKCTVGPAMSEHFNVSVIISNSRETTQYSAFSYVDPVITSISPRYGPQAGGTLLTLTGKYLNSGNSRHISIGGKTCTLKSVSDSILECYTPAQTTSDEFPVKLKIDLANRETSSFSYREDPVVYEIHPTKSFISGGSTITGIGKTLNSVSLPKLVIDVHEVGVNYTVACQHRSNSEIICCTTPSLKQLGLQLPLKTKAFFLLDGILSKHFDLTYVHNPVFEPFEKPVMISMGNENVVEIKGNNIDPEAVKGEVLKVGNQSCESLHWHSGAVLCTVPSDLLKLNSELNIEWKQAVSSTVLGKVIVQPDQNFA

Sequence of UniProt P08581 (P08581 25-932 limits assumed): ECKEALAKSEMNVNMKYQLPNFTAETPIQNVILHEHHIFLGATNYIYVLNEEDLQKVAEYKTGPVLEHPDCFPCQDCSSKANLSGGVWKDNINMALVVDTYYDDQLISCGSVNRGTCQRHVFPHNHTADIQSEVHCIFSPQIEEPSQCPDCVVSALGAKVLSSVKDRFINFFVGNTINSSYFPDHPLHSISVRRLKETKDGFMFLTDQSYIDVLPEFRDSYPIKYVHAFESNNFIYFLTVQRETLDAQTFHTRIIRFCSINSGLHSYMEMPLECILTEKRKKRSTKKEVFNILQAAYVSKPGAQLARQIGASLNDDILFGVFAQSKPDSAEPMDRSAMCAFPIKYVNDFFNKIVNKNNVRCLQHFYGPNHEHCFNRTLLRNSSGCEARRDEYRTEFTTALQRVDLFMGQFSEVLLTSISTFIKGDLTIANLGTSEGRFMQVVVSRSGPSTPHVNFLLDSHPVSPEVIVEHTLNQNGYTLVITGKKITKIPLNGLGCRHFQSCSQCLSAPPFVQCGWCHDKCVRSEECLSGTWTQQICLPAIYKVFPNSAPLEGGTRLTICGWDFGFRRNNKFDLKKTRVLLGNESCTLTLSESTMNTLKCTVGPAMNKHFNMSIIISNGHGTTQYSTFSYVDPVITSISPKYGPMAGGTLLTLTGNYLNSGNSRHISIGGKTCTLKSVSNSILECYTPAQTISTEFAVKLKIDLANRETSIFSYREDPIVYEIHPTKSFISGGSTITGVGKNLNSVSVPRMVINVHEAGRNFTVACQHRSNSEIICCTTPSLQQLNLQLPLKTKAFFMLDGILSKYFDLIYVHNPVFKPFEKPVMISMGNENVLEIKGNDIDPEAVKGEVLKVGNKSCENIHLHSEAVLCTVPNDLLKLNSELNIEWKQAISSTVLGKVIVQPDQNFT

Substance: monoclonal antibody against human c-Met, 5D5 (Genetech)
- absorption at 450 nm [1]: 0.373
- absorption at 450 nm [2]: 0.113
